The supplement of paper PMC10567573

B1: USP39 (parent)
chain: FQGSMRIFTKKLPHPDLPAEEKEQ

Variants of: B1
Assay: protein stability index of a GFP-peptide fusion (GPS, HEK-293T) (PSI 1-6); higher = more stable
Settings: c terminus: a fixed tail appended
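Further: lentivirally expressed fusions sorted by FACS into six bins by GFP to DsRed ratio, PSI derived from sequencing read proportions per bin multiplied by bin number.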

Protein stability index of substitutions, site by site:
E20: A 1.9, H 1.59, M 1.67, R 1.95, Y 1.87, G 1.59, I 2.03, K 2.51, W 2.38, C 2.12, F 1.85, T 2.17, V 1.5, S 2.16, D 1.87, L 2.07, N 1.51, Q 1.36
P15: Q 1.74, F 2.14, N 2.41, Y 1.34, L 1.85, V 1.62, S 1.94, H 2.15, E 2.19, K 1.76, D 1.73, I 1.75, M 2.1, W 1.48, R 2.03, C 1.64, T 1.93, G 1.92, A 1.92
D16: G 1.97, P 1.73, L 2.3, I 2.13, T 2.64, V 1.99, N 2.37, K 1.94, A 1.7, C 1.54, R 2.17, Q 2.19, F 2.16, Y 2.18, S 1.85, E 2.18, M 1.76, H 2.12, W 2.67
L12: Q 2.23, P 2.45, W 1.45, G 1.72, N 2.05, E 1.71, M 2.37, C 2.15, H 2.17, A 1.62, R 1.32, D 2.63, F 1.47, I 1.91, Y 2, K 1.86, T 1.93, S 2.41, V 1.74
F8: L 3.28, H 3.33, I 3.17, W 1.56, T 3.89, R 3.59, Y 2.35, G 3.48, K 3.64, Q 3.77, N 3.68, C 3.05, E 4.01, M 3.52, P 3.42, D 4.23, A 3.6, S 3.29, V 3.04
I7: C 1.8, P 1.93, G 2.89, V 1.99, E 4.04, M 2.44, Y 2.12, A 2.56, W 3.05, T 3.01, K 3.69, F 2.94, N 3.65, S 3.38, Q 3.65, H 2.97, D 3.85, R 4.38, L 1.84
K22: N 2.09, W 1.93, R 2.54, V 2.48, S 1.88, P 2.09, L 1.78, I 1.94, A 2.23, D 2.08, H 1.22, F 1.96, E 2.11, G 2.13, T 1.93, C 1.69, Y 1.54, Q 1.62, M 2.32
E23: N 2.1, M 1.85, Q 1.64, F 1.38, P 1.84, D 2.16, L 1.69, G 2.21, I 1.57, C 1.79, K 1.84, A 1.65, H 2.18, R 1.71
A19: Q 2.31, N 1.79, C 1.96, M 1.63, H 2.25, E 2.37, Y 1.34, W 1.58, K 1.73, D 2.07, I 1.53, F 1.81, V 2.25, P 2.5, G 1.63, L 2.25, T 1.68, R 1.64, S 2.08
T9: I 1.66, W 2.23, Q 2.19, S 1.75, L 1.92, V 1.5, R 2.23, A 2.04, N 2.65, F 1.89, P 3.14, E 3.07, K 2.08, Y 1.94, H 2, D 2.73, G 2.25, C 1.69, M 2.03
K10: Y 1.94, D 2.07, S 2.44, T 1.19, I 1.74, G 2.2, M 1.37, C 3.86, V 2.22, P 3.29, N 2.81, L 2.53, A 2.08, Q 1.84, F 2.03, W 1.81, H 2.37, R 1.61
L17: D 2.32, S 1.95, P 1.96, C 2.33, A 1.99, I 1.89, V 1.88, R 1.9, W 2.06, M 1.95, F 2.36, G 2.19, N 2.26, K 1.66, H 1.92, T 2.1, Y 2.5, Q 2.34, E 2.24
E21: Y 1.62, D 1.73, R 1.96, G 1.88, P 2.02, M 2.23, N 2.36, W 1.32, V 1.4, K 1.91, A 1.81, C 1.54, I 2.45, S 2.12, T 2.01, Q 2.08, L 2.04, F 2.29, H 2.25
H14: D 2.18, C 2.27, L 2.36, Q 1.78, S 1.65, A 1.9, T 2.36, M 2.36, W 1.99, P 1.86, F 1.92, N 1.94, V 1.88, E 2.05, K 1.77, G 1.77, I 1.84, Y 1.8, R 1.93
R6: L 2.31, S 3.04, M 2.15, N 1.3, K 1.89, F 1.76, T 2.01, G 1.64, E 1.81, I 2.12, H 1.83, Q 2.22, P 2.37, V 1.82, D 1.84, C 1.76, Y 2.24, A 1.92
P18: M 2.06, G 1.98, A 2.07, S 2.21, R 1.88, W 2.1, H 1.82, N 1.98, K 2.01, L 1.75, I 1.7, E 1.8, Q 2.15, C 1.83, Y 1.74, D 1.93, F 2.11, V 1.71, T 1.88
P13: L 1.65, W 3.08, I 1.86, N 2.35, T 1.68, Y 1.62, Q 1.9, F 1.99, H 2.4, D 1.72, G 2.1, E 1.98, K 2.15, V 1.75, M 2.12, C 2.05, S 1.61, A 2.94, R 2.17
K11: F 1.7, R 2.06, V 2, D 2.08, T 1.96, I 1.87, E 2.85, C 3.14, Y 1.71, M 1.61, H 1.57, G 1.94, L 1.65, N 2.35, W 1.85, S 1.9, A 1.68, Q 1.85, P 1.84
